According to patent US20190328899A1 (HEIDELBERG PHARMA RESEARCH, published 2019):

T1: B-Cell maturation antigen (BCMA) on BCMA-expressing multiple myeloma cell lines (human, UniProt Q02223 1-184)
T1 sequence (looked up): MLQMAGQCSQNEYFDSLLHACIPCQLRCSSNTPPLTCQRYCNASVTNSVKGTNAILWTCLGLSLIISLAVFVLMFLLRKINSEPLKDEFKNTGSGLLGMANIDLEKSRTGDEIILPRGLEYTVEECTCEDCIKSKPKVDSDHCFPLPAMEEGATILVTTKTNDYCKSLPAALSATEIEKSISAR


Experiments:
[1] = target: B-Cell maturation antigen (BCMA) on BCMA-expressing multiple myeloma cell lines (human) (UniProt Q02223); assay: cell-based or functional assay
[2] = target: T1, B-Cell maturation antigen (BCMA) on …; assay: cell-based or functional assay
[3] = target: T1, B-Cell maturation antigen (BCMA) on …; assay: flow cytometry-binding assay on MM.1S Luc and NCI-H929 cells
[4] = target: T1, B-Cell maturation antigen (BCMA) on …; assay: cell-based or functional assay; remark: listed apart in the source

Molecule | cytotoxic potential EC50, KMS-11 cells, 96 h [1] | cytotoxic potential EC50, MM.1S Luc cells, 96 h [1] | cytotoxicity EC50 [M], MM.1S Luc cells, 96 h [2] | cytotoxicity EC50 [M], MM.1S cells, 96 h [2] | cytotoxicity EC50 [M], NCI-H929 cells, 96 h [2] | cytotoxicity EC50 [M], OPM-2 cells, 96 h [2] | cytotoxicity EC50 [M], U266B1 cells, 96 h [2] | binding result [3] | cytotoxic potential EC50, KMS-11 cells, 96 h [4] | cytotoxic potential EC50, MM.1S Luc cells, 96 h [4]
monomethyl auristatin F derivative J22.9-ISY-MMAF (antibody) | 0.626 nM | 0.481 nM |  |  |  |  |  |  |  | 
J22.9-ISY-D265C-30.1699 (antibody, V domains shown, alpha-amanitin-linker HDP 30.1699 (cathepsin B cleavable linker, maleimide) on the engineered Cys 265) VH: EVQLVESGGGLVQPGGSLRLSCAASGFTFSRYWISWVRQAPGKGLVWVGEINPSSSTINYAPSLKDKFTISRDNAKNTLYLQMNSLRAEDTAVYYCASLYYDYGDAYDYWGQGTLVTVSS VL: EIVMTQSPATLSVSPGERATLSCKASQSVESNVAWYQQKPGQAPRALIYSASLRFSGIPARFSGSGSGTEFTLTISSLQSEDFAVYYCQQYNNYPLTFGAGTKLELKR |  |  | 6.5e-11 M | 1.7e-10 M | 7e-11 M | 7.9e-09 M | 7.3e-11 M |  |  | 
Thiomab antibody J22.9-ISY-D265C (antibody, human IgG1, kappa, V domains shown, Unconjugated antibody; also called thiomab J22.9-ISY-D265C) VH: EVQLVESGGGLVQPGGSLRLSCAASGFTFSRYWISWVRQAPGKGLVWVGEINPSSSTINYAPSLKDKFTISRDNAKNTLYLQMNSLRAEDTAVYYCASLYYDYGDAYDYWGQGTLVTVSS VL: EIVMTQSPATLSVSPGERATLSCKASQSVESNVAWYQQKPGQAPRALIYSASLRFSGIPARFSGSGSGTEFTLTISSLQSEDFAVYYCQQYNNYPLTFGAGTKLELKR |  |  |  |  |  |  |  | binds |  | 
amanitin-conjugate J22.9-ISY-D265C-30.2115 (antibody, V domains shown, amatoxin-linker HDP 30.2115 (cathepsin B cleavable linker, maleimide) on the engineered Cys 265) VH: EVQLVESGGGLVQPGGSLRLSCAASGFTFSRYWISWVRQAPGKGLVWVGEINPSSSTINYAPSLKDKFTISRDNAKNTLYLQMNSLRAEDTAVYYCASLYYDYGDAYDYWGQGTLVTVSS VL: EIVMTQSPATLSVSPGERATLSCKASQSVESNVAWYQQKPGQAPRALIYSASLRFSGIPARFSGSGSGTEFTLTISSLQSEDFAVYYCQQYNNYPLTFGAGTKLELKR |  |  | 2.3e-10 M | 2.9e-10 M | 9.7e-11 M | 1.4e-07 M | 1.4e-10 M |  | 1.72 nM | 0.557 nM
